Patent US20190119318A1

How the values were obtained:
[1] = target: human polyclonal IgG (Gammanorm) (human); assay: column DBC; base A56-2; ligand 12.5 mg/ml
[2] = target: human polyclonal IgG (Gammanorm) (human); assay: column DBC; base A56; ligand […]; conditions: ligand content 7.1 mg/ml
[3] = target: human polyclonal IgG (Gammanorm) (human); assay: column DBC; base A33; ligand […]; conditions: ligand content 6.5 mg/ml
[4] = target: human polyclonal IgG (Gammanorm) (human); assay: column DBC; base A63b; ligand 16.7 mg/ml
[5] = target: human polyclonal IgG (Gammanorm) (human); assay: column DBC; base A20; ligand 6.4 mg/ml
[6] = target: human polyclonal IgG (Gammanorm) (human); assay: column DBC; base A56; ligand 19.2 mg/ml
[7] = target: human polyclonal IgG (Gammanorm) (human); assay: column DBC; base A56-2; ligand […]
[8] = target: human polyclonal IgG (Gammanorm) (human); assay: column DBC; base A38; ligand 15.8 mg/ml
[9] = target: human polyclonal IgG (Gammanorm) (human); assay: column DBC; base H35; ligand 12.3 mg/ml
[10] = target: human polyclonal IgG (Gammanorm) (human); assay: column DBC; base H31; ligand 20.0 mg/ml
[11] = target: human polyclonal IgG (Gammanorm) (human); assay: column DBC; base A54; ligand […]; conditions: ligand content 6.7 mg/ml
[12] = target: human polyclonal IgG (Gammanorm) (human); assay: column DBC; base A56; ligand 15.2 mg/ml
[13] = target: human polyclonal IgG (Gammanorm) (human); assay: column DBC; base A38; ligand 11.6 mg/ml
[14] = target: human polyclonal IgG (Gammanorm) (human); assay: column DBC; base C3; ligand 11.9 mg/ml
[15] = target: human polyclonal IgG (Gammanorm) (human); assay: column DBC; base H40; ligand 23.0 mg/ml
[16] = target: human polyclonal IgG (Gammanorm) (human); assay: column DBC; base A63b; ligand 10.6 mg/ml
[17] = target: human polyclonal IgG (Gammanorm) (human); assay: SPR; vs reference Zvar6; 0.5 M NaOH
[18] = target: human polyclonal IgG (Gammanorm) (human); assay: column DBC; base P10; ligand 19.0 mg/ml
[19] = target: human polyclonal IgG (Gammanorm) (human); assay: column DBC; base H35; ligand […]
[20] = target: human polyclonal IgG (Gammanorm) (human); assay: column DBC; base H35; ligand 20.3 mg/ml
[21] = target: human polyclonal IgG (Gammanorm) (human); assay: column DBC; base S9; ligand 18.4 mg/ml
[22] = target: human polyclonal IgG (Gammanorm) (human); assay: column DBC; base C4; ligand 11.2 mg/ml
[23] = target: human polyclonal IgG (Gammanorm) (human); assay: column DBC; base C3; ligand 15.1 mg/ml
[24] = target: human polyclonal IgG (Gammanorm) (human); assay: column DBC; base H40; ligand […]; conditions: ligand content 6.9 mg/ml
[25] = target: human polyclonal IgG (Gammanorm) (human); assay: column DBC; base A63b; ligand 6.4 mg/ml
[26] = target: human polyclonal IgG (Gammanorm) (human); assay: column DBC; base C4; ligand 15.2 mg/ml
[27] = target: human polyclonal IgG (Gammanorm) (human); assay: column DBC; base A56; ligand 7.9 mg/ml
[28] = target: human polyclonal IgG (Gammanorm) (human); assay: SPR; after 100 CIP cycles 0.5 M NaOH
[29] = target: human polyclonal IgG (Gammanorm) (human); assay: column DBC; base H31; ligand […]
[30] = target: human polyclonal IgG (Gammanorm) (human); assay: column DBC; base A38; ligand […]
[31] = target: human polyclonal IgG (Gammanorm) (human); assay: column DBC; base A62a; ligand […]
[32] = target: human polyclonal IgG (Gammanorm) (human); assay: column DBC; base A20; ligand 21.1 mg/ml
[33] = target: human polyclonal IgG (Gammanorm) (human); assay: column DBC; base A54; ligand 21.1 mg/ml
[34] = target: human polyclonal IgG (Gammanorm) (human); assay: column DBC; base A20; ligand […]
[35] = target: human polyclonal IgG (Gammanorm) (human); assay: column DBC; base A56-2; ligand 19.2 mg/ml
[36] = target: human polyclonal IgG (Gammanorm) (human); assay: column DBC; base A62a; ligand 9.6 mg/ml
[37] = target: human polyclonal IgG (Gammanorm) (human); assay: column DBC; base C3; ligand […]

Zvar(Q9A,N11E,Q40V,A42K,N43A,L44I)6 (designed binder)
Qb10% 2.4 min [1]: 59 mg/mL
Qb10% 6 min [1]: 72 mg/mL
Qb10% 2.4 min [2]: 48 mg/mL
Qb10% 6 min [2]: 57 mg/mL
Qb10% 2.4 min [3]: 44 mg/mL
Qb10% 6 min [3]: 53 mg/mL
Qb10% 2.4 min [4]: 53 mg/mL
Qb10% 6 min [4]: 69 mg/mL
Qb10% 2.4 min [5]: 41 mg/mL
Qb10% 6 min [5]: 56 mg/mL
Qb10% 2.4 min [6]: 55 mg/mL
Qb10% 6 min [6]: 80 mg/mL
Qb10% 2.4 min [7]: 50 mg/mL
Qb10% 6 min [7]: 58 mg/mL
Qb10% 2.4 min [8]: 36 mg/mL
Qb10% 6 min [8]: 62 mg/mL
Qb10% 2.4 min [9]: 31 mg/mL
Qb10% 6 min [9]: 54 mg/mL
Qb10% 2.4 min [10]: 31 mg/mL
Qb10% 6 min [10]: 52 mg/mL
Qb10% 2.4 min [11]: 38 mg/mL
Qb10% 6 min [11]: 46 mg/mL
Qb10% 2.4 min [12]: 48 mg/mL
Qb10% 6 min [12]: 76 mg/mL
Qb10% 2.4 min [13]: 48 mg/mL
Qb10% 6 min [13]: 72 mg/mL
Qb10% 2.4 min [14]: 51 mg/mL
Qb10% 6 min [14]: 73 mg/mL
Qb10% 2.4 min [15]: 41 mg/mL
Qb10% 6 min [15]: 65 mg/mL
Qb10% 2.4 min [16]: 49 mg/mL
Qb10% 6 min [16]: 60 mg/mL
capacity relative to ref. 100 cycles [17]: 1.3
Qb10% 6 min [18]: 76 mg/mL
Qb10% 2.4 min [19]: 36 mg/mL
Qb10% 6 min [19]: 49 mg/mL
Qb10% 2.4 min [20]: 20 mg/mL
Qb10% 6 min [20]: 43 mg/mL
Qb10% 2.4 min [21]: 56 mg/mL
Qb10% 6 min [21]: 75 mg/mL
Qb10% 2.4 min [22]: 62 mg/mL
Qb10% 6 min [22]: 74 mg/mL
Qb10% 2.4 min [23]: 43 mg/mL
Qb10% 6 min [23]: 61 mg/mL
Qb10% 2.4 min [24]: 50 mg/mL
Qb10% 6 min [24]: 56 mg/mL
Qb10% 2.4 min [25]: 42 mg/mL
Qb10% 6 min [25]: 46 mg/mL
Qb10% 2.4 min [26]: 57 mg/mL
Qb10% 6 min [26]: 82 mg/mL
Qb10% 2.4 min [27]: 47 mg/mL
Qb10% 6 min [27]: 55 mg/mL
remaining capacity 100 cycles [28]: 87%
Qb10% 2.4 min ([29]; ligand content 6.5 mg/ml): 37 mg/mL
Qb10% 6 min ([29]; ligand content 6.5 mg/ml): 38 mg/mL
Qb10% 2.4 min ([29]; ligand content 10.4 mg/ml): 50 mg/mL
Qb10% 6 min ([29]; ligand content 10.4 mg/ml): 61 mg/mL
Qb10% 2.4 min [30]: 47 mg/mL
Qb10% 6 min [30]: 57 mg/mL
Qb10% 2.4 min [31]: 62 mg/mL
Qb10% 6 min [31]: 84 mg/mL
Qb10% 2.4 min [32]: 44 mg/mL
Qb10% 6 min [32]: 43 mg/mL
Qb10% 2.4 min [33]: 38 mg/mL
Qb10% 6 min [33]: 65 mg/mL
Qb10% 2.4 min [34]: 38 mg/mL
Qb10% 6 min [34]: 64 mg/mL
Qb10% 2.4 min [35]: 61 mg/mL
Qb10% 6 min [35]: 82 mg/mL
Qb10% 2.4 min [36]: 56 mg/mL
Qb10% 6 min [36]: 72 mg/mL
Qb10% 2.4 min [37]: 48 mg/mL
Qb10% 6 min [37]: 59 mg/mL
